Data published in patent US20240301064A1 (published 2024).
Substitutions are numbered along the chain they refer to. Each block holds one binder with its values, some of them ahead of it.

Columns and labels:
Insulin = biological target: T1, Insulin; assay: ELISA on coated insulin, 100 nM antibody
T1 construct: polyreactivity antigen

human PD-1 = biological target: T2, human PD-1 (human, UniProt Q15116 25-167, limits assumed); assay: BLI, antibody on AHC tip
T2 construct: also called huPD-1
T2 sequence (Q15116 25-167 limits assumed): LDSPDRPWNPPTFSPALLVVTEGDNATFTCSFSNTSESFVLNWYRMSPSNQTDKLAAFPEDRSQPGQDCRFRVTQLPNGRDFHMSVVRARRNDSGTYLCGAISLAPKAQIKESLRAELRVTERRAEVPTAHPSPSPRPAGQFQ

T1 sequence (P01308 25-54, chain 1 of 2): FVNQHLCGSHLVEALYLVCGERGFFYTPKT
T1 sequence (P01308 90-110, chain 2 of 2): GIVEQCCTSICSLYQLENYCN

Insulin polyreactivity score (Insulin): 13.2
B1: MIAB133 (antibody, human IgG1, kappa)
heavy: EVQLLESGGGLVQPGGSLRLSCAASGFTFSSFWMHWVRQAPGKGLEWISYISGDSGYTNYADSVKGRFTISRDNSKNTLYLQMNSLRAEDTAVYYCARDRPYYYYMDVWGKGTTVTVSSASTKGPSVFPLAPSSKSTSGGTAALGCLVKDYFPEPVTVSWNSGALTSGVHTFPAVLQSSGLYSLSSVVTVPSSSLGTQTYICNVNHKPSNTKVDKKVEPKSCDKTHTCPPCPAPEAAGAPSVFLFPPKPKDTLMISRTPEVTCVVVDVSHEDPEVKFNWYVDGVEVHNAKTKPREEQYNSTYRVVSVLTVLHQDWLNGKEYKCKVSNKALPAPIEKTISKAKGQPREPQVYTLPPSREEMTKNQVSLTCLVKGFYPSDIAVEWESNGQPENNYKTTPPVLDSDGSFFLYSKLTVDKSRWQQGNVFSCSVMHEALHNHYTQKSLSLSPGGGGGSAPTSSSTKKTQLQLEHLLLDLQMILNGINNYKNPKLTRMLTFKFYMPKKATELKHLQCLEEELKPLEEALNLAPSKNFHLRPRDLISDINVIVLELKGSETTFMCEYADETATIVEFINRWITFSQSIISTLT
light: DIQMTQSPSSLSASVGDRVTITCRASQSVSRSLAWYQQKPGKAPKLLIYAASSLQSGVPSRFSGSGSGTDFTLTISSLQPEDFATYYCQQYKSYPVTFGQGTKVEIKRTVAAPSVFIFPPSDEQLKSGTASVVCLLNNFYPREAKVQWKVDNALQSGNSQESVTEQDSKDSTYSLSSTLTLSKADYEKHKVYACEVTHQGLSSPVTKSFNRGEC
notes: also called MIAB133-001

Insulin polyreactivity score (Insulin): 75.4
B2: MIAB136 (antibody, human IgG1, kappa)
heavy: B1 heavy with F32Y, W33A, H35S
light: B1 light

Insulin polyreactivity score (Insulin): 2.61
B3: MIAB146 (antibody, human IgG1, kappa)
heavy: B1 heavy with S31D
light: B1 light with R31S
notes: also called MIAB146-001

Insulin polyreactivity score (Insulin): 4.58
B4: MIAB145 (antibody, human IgG1, kappa)
heavy: B1 heavy with S31D
light: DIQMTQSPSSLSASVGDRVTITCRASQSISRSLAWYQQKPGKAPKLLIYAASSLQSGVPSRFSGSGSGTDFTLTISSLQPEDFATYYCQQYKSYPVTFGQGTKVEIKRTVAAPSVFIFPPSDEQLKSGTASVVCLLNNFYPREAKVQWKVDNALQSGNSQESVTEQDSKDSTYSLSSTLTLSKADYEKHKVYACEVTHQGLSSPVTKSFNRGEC
notes: also called MIAB145-001

Insulin polyreactivity score (Insulin): 67.3
B5: MIAB137 (antibody, human IgG1, kappa)
heavy: B1 heavy with S31D, I48V, Y50A, D54S, S55G, Y57S, N59Y
light: B1 light

Insulin polyreactivity score (Insulin): 3.53
B6: MIAB149 (antibody, human IgG1, kappa)
heavy: B1 heavy with S31D
light: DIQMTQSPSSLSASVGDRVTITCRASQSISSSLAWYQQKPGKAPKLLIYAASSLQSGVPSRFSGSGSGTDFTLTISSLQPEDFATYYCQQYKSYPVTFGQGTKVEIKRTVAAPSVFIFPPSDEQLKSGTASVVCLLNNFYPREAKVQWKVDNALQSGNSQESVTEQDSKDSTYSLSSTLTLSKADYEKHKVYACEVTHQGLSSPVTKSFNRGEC
notes: also called MIAB149-001

Insulin polyreactivity score (Insulin): 3.81
B7: MIAB147 (antibody, human IgG1, kappa)
heavy: B1 heavy with S31D
light: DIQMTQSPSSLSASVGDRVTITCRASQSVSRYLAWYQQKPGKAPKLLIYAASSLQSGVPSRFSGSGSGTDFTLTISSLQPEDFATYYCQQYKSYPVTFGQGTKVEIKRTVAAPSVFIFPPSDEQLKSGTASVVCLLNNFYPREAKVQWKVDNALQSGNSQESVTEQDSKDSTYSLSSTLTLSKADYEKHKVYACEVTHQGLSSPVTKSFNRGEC
notes: also called MIAB147-001

binding result (human PD-1): no binding (tested: 1000 nM)
B8: PMAB137 (bispecific antibody, human IgG1, kappa)
heavy: EVQLLESGGGLVQPGGSLRLSCAASGFTFSNSAMSWVRQAPGKGLEWVSGITISGGSTYYADSVKGRFTISRDNSKNTLYLQMNSLRAEDTAVYYCARGRGGSGWLDYWGQGTLVTVSSASTKGPSVFPLAPSSKSTSGGTAALGCLVKDYFPEPVTVSWNSGALTSGVHTFPAVLQSSGLYSLSSVVTVPSSSLGTQTYICNVNHKPSNTKVDKKVEPKSCDKTHTCPPCPAPEAAGAPSVFLFPPKPKDTLMISRTPEVTCVVVDVSHEDPEVKFNWYVDGVEVHNAKTKPREEQYNSTYRVVSVLTVLHQDWLNGKEYKCKVSNKALPAPIEKTISKAKGQPREPQVYTLPPSREEMTKNQVSLTCLVKGFYPSDIAVEWESNGQPENNYKTTPPVLDSDGSFFLYSKLTVDKSRWQQGNVFSCSVMHEALHNHYTQKSLSLSPGGGGGSGGGGSGGGGSEVQLLESGGGLVQPGGSLRLSCAASGFTFSDFWMHWVRQAPGKGLEWISYISGDSGYTNYADSVKGRFTISRDNSKNTLYLQMNSLRAEDTAVYYCARDRPYYYYMDVWGKGTTVTVSSGGGGSGGGGSGGGGSGGGGSDIQMTQSPSSLSASVGDRVTITCRASQSVSRSLAWYQQKPGKAPKLLIYAASSLQSGVPSRFSGSGSGTDFTLTISSLQPEDFATYYCQQYKSYPVTFGQGTKVEIK
light: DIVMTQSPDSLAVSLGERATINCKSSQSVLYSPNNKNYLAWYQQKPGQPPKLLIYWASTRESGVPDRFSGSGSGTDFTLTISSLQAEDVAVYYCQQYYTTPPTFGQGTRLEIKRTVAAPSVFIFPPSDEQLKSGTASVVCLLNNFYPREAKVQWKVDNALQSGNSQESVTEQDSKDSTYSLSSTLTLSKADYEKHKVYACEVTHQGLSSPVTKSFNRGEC
